The sequences below were run on Fer (mouse) (assay: phosphorylation enrichment, bacterial display (enrichment ratio); higher = better substrate or ligand; peptides without Tyr show the background).
VMVCAYLLHRG [PTEN_Y138_I135V] was tested, and the phosphorylation enrichment was 0.558. QFFQGYFNNNF [ZNF236_Y644_S643G] was tested, and the phosphorylation enrichment was 0.356. VIKDKYPQARY [APTX_Y209_K211Q] gave a phosphorylation enrichment of 0.42. Sequence VQDPAYLRDIN [OPRK1_Y369_D374N] has a phosphorylation enrichment of 0.46. In the case of EWLRGYLENGK [HLA-C_Y195_R194G], the phosphorylation enrichment is reported as 0.436. In the case of KQMEQYMSFHK [HCN1_Y417_V414M], the phosphorylation enrichment is reported as 0.313. Sequence EWQQTYTYDSG [JUP_Y20] has a phosphorylation enrichment of 0.513. With HNLDFYKKTTN [FGFR3_Y648_YF] the phosphorylation enrichment was 2.46. GVRLFYRVMES [RB1_Y454_YF] showed a phosphorylation enrichment of 0.517. SVTCTYSPALN [TP53_Y126] was tested, and the phosphorylation enrichment was 0.626. For AEPPDYSPVTQ [ADGRG2_Y285_H290Q], the phosphorylation enrichment was 0.546. With GKFRMYVAVWT [F13A1_Y161] the phosphorylation enrichment was 0.501. REDVFYTSKLW [AKR1C2_Y81_I79V] showed a phosphorylation enrichment of 0.422. Sequence TVETKYDNISR [SETDB2_Y477] has a phosphorylation enrichment of 0.433. Work on RKQQLYTAMEE [CCDC39_Y593] yielded a phosphorylation enrichment of 0.672. For EELLRYAIVTP [POC5_Y37_H36R], the phosphorylation enrichment was 0.6. Sequence PVDNLYAEPAV [PRPS1_Y146] has a phosphorylation enrichment of 4.64. With NQLNDYIFSFD [RARS1_Y516_R512Q] the phosphorylation enrichment was 0.461. With FQKNIYSEEPR [LMNA_Y211_L215P] the phosphorylation enrichment was 0.454. For KELALYDENWF [RPS19_Y48_P47L], the phosphorylation enrichment was 7.67. KRISCYEARFQ [PFKFB3_Y194_S197R_YF] gave a phosphorylation enrichment of 0.399. FSAPNYCFRCG [PPP2CA_Y265_YF] gave a phosphorylation enrichment of 0.415. Sequence ADVLDYIKALN [HPRT1_Y81_L78V] has a phosphorylation enrichment of 0.415. For EVTLTYATGTK [NFKB1_Y485], the phosphorylation enrichment was 0.425. For FLAVGYHKPHI [IDS_Y225], the phosphorylation enrichment was 0.561. In the case of FADTAYNFRHG [PAH_Y166_I164T_YF], the phosphorylation enrichment is reported as 0.317. VMTVDYSKTVV [SETD2_Y770] gave a phosphorylation enrichment of 0.493. In the case of SVKVYYKKCWF [EPHA7_Y202_S207F], the phosphorylation enrichment is reported as 0.433. In the case of LIQRNYKLTAQ [ALPK2_Y1975_A1978T], the phosphorylation enrichment is reported as 0.393. Sequence DVFVSYDFGKS [SORL1_Y139_YF] has a phosphorylation enrichment of 0.485. AFRRGYFDEEM [PLEC_Y2971_YF] showed a phosphorylation enrichment of 0.445. IIRRLYLKWHP [SACS_Y4333] gave a phosphorylation enrichment of 0.453. In the case of SEPDLYCDPRG [PKP1_Y160], the phosphorylation enrichment is reported as 2.37.

The sequences below were run against Jak2 (UniProt O60674) in the same assay as above.
Chain of Jak2 (O60674 whole entry, looked up): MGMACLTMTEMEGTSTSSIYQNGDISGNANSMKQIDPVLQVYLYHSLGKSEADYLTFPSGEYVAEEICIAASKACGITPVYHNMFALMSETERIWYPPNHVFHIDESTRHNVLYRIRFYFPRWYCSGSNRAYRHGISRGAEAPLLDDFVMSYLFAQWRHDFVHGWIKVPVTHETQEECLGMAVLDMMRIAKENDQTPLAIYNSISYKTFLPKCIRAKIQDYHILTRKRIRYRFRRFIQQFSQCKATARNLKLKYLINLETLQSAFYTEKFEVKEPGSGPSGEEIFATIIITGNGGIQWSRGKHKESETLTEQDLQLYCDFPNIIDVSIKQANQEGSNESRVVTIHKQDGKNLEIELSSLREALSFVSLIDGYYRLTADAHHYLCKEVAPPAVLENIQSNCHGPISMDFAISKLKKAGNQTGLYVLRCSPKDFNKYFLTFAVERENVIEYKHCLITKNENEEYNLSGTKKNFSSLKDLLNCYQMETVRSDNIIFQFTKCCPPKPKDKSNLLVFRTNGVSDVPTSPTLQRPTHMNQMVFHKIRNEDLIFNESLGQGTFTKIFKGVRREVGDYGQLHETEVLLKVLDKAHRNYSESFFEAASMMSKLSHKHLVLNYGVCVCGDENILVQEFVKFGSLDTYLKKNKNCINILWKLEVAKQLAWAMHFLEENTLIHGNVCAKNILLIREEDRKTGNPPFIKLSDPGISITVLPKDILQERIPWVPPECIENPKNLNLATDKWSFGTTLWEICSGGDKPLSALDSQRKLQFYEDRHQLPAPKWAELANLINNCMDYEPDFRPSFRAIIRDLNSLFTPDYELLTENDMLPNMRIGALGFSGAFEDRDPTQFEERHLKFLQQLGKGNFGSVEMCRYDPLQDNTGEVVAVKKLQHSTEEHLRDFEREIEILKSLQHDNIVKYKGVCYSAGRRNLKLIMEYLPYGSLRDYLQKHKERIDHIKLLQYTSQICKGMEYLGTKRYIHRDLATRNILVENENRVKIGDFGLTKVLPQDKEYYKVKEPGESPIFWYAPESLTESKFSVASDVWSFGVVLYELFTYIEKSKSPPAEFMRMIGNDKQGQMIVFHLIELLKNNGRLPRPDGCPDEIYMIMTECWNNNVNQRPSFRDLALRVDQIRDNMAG
For VMVCAYLLHRG [PTEN_Y138_I135V], the phosphorylation enrichment was 1.23. QFFQGYFNNNF [ZNF236_Y644_S643G] gave a phosphorylation enrichment of 1.55. For VIKDKYPQARY [APTX_Y209_K211Q], the phosphorylation enrichment was 0.554. Work on VQDPAYLRDIN [OPRK1_Y369_D374N] yielded a phosphorylation enrichment of 0.766. In the case of EWLRGYLENGK [HLA-C_Y195_R194G], the phosphorylation enrichment is reported as 0.777. Sequence KQMEQYMSFHK [HCN1_Y417_V414M] has a phosphorylation enrichment of 0.516. Sequence EWQQTYTYDSG [JUP_Y20] has a phosphorylation enrichment of 0.898. For HNLDFYKKTTN [FGFR3_Y648_YF], the phosphorylation enrichment was 5.47. In the case of GVRLFYRVMES [RB1_Y454_YF], the phosphorylation enrichment is reported as 1.38. In the case of SVTCTYSPALN [TP53_Y126], the phosphorylation enrichment is reported as 1.45. AEPPDYSPVTQ [ADGRG2_Y285_H290Q] showed a phosphorylation enrichment of 0.95. With GKFRMYVAVWT [F13A1_Y161] the phosphorylation enrichment was 1.13. REDVFYTSKLW [AKR1C2_Y81_I79V] gave a phosphorylation enrichment of 1.41. For TVETKYDNISR [SETDB2_Y477], the phosphorylation enrichment was 0.667. Sequence RKQQLYTAMEE [CCDC39_Y593] has a phosphorylation enrichment of 0.836. Work on EELLRYAIVTP [POC5_Y37_H36R] yielded a phosphorylation enrichment of 0.867. Work on PVDNLYAEPAV [PRPS1_Y146] yielded a phosphorylation enrichment of 1.02. NQLNDYIFSFD [RARS1_Y516_R512Q] was tested, and the phosphorylation enrichment was 1.08. In the case of FQKNIYSEEPR [LMNA_Y211_L215P], the phosphorylation enrichment is reported as 0.717. For KELALYDENWF [RPS19_Y48_P47L], the phosphorylation enrichment was 1.44. KRISCYEARFQ [PFKFB3_Y194_S197R_YF] gave a phosphorylation enrichment of 0.647. In the case of FSAPNYCFRCG [PPP2CA_Y265_YF], the phosphorylation enrichment is reported as 0.511. In the case of ADVLDYIKALN [HPRT1_Y81_L78V], the phosphorylation enrichment is reported as 0.748. Sequence EVTLTYATGTK [NFKB1_Y485] has a phosphorylation enrichment of 0.75. Sequence FLAVGYHKPHI [IDS_Y225] has a phosphorylation enrichment of 0.733. Sequence FADTAYNFRHG [PAH_Y166_I164T_YF] has a phosphorylation enrichment of 0.45. In the case of VMTVDYSKTVV [SETD2_Y770], the phosphorylation enrichment is reported as 0.615. SVKVYYKKCWF [EPHA7_Y202_S207F] was tested, and the phosphorylation enrichment was 1.08. Work on LIQRNYKLTAQ [ALPK2_Y1975_A1978T] yielded a phosphorylation enrichment of 1.24. DVFVSYDFGKS [SORL1_Y139_YF] showed a phosphorylation enrichment of 0.906. AFRRGYFDEEM [PLEC_Y2971_YF] showed a phosphorylation enrichment of 1.7. With IIRRLYLKWHP [SACS_Y4333] the phosphorylation enrichment was 0.819. SEPDLYCDPRG [PKP1_Y160] gave a phosphorylation enrichment of 1.23.

These sequences were tested against Fyn (UniProt P06241) in the same assay as above.
Chain of Fyn (P06241 whole entry, looked up): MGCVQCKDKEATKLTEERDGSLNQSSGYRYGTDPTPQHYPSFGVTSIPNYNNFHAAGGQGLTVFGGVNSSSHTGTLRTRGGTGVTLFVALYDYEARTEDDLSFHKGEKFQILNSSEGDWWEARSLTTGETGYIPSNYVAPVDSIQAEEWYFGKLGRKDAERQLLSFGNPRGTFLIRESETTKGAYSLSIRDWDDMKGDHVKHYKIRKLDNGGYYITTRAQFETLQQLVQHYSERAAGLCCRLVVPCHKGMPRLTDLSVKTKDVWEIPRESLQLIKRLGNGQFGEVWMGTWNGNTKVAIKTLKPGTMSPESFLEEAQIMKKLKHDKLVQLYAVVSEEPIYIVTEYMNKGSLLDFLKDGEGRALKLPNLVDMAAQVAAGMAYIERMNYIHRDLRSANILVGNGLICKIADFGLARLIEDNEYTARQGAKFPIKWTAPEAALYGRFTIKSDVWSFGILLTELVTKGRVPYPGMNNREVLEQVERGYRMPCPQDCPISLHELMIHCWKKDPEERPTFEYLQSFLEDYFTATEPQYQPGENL
With VMVCAYLLHRG [PTEN_Y138_I135V] the phosphorylation enrichment was 0.478. With QFFQGYFNNNF [ZNF236_Y644_S643G] the phosphorylation enrichment was 0.42. For VIKDKYPQARY [APTX_Y209_K211Q], the phosphorylation enrichment was 0.363. In the case of VQDPAYLRDIN [OPRK1_Y369_D374N], the phosphorylation enrichment is reported as 0.467. EWLRGYLENGK [HLA-C_Y195_R194G] showed a phosphorylation enrichment of 0.464. KQMEQYMSFHK [HCN1_Y417_V414M] was tested, and the phosphorylation enrichment was 1.47. EWQQTYTYDSG [JUP_Y20] showed a phosphorylation enrichment of 1.28. HNLDFYKKTTN [FGFR3_Y648_YF] was tested, and the phosphorylation enrichment was 0.916. With GVRLFYRVMES [RB1_Y454_YF] the phosphorylation enrichment was 0.448. SVTCTYSPALN [TP53_Y126] gave a phosphorylation enrichment of 0.489. In the case of AEPPDYSPVTQ [ADGRG2_Y285_H290Q], the phosphorylation enrichment is reported as 0.444. Work on GKFRMYVAVWT [F13A1_Y161] yielded a phosphorylation enrichment of 0.377. REDVFYTSKLW [AKR1C2_Y81_I79V] showed a phosphorylation enrichment of 0.89. In the case of TVETKYDNISR [SETDB2_Y477], the phosphorylation enrichment is reported as 0.519. Work on RKQQLYTAMEE [CCDC39_Y593] yielded a phosphorylation enrichment of 0.529. In the case of EELLRYAIVTP [POC5_Y37_H36R], the phosphorylation enrichment is reported as 0.456. With PVDNLYAEPAV [PRPS1_Y146] the phosphorylation enrichment was 1.96. Sequence NQLNDYIFSFD [RARS1_Y516_R512Q] has a phosphorylation enrichment of 0.743. Sequence FQKNIYSEEPR [LMNA_Y211_L215P] has a phosphorylation enrichment of 1.02. KELALYDENWF [RPS19_Y48_P47L] gave a phosphorylation enrichment of 1.02. Sequence KRISCYEARFQ [PFKFB3_Y194_S197R_YF] has a phosphorylation enrichment of 0.382. In the case of FSAPNYCFRCG [PPP2CA_Y265_YF], the phosphorylation enrichment is reported as 0.349. In the case of ADVLDYIKALN [HPRT1_Y81_L78V], the phosphorylation enrichment is reported as 0.507. For EVTLTYATGTK [NFKB1_Y485], the phosphorylation enrichment was 0.496. FLAVGYHKPHI [IDS_Y225] gave a phosphorylation enrichment of 0.495. FADTAYNFRHG [PAH_Y166_I164T_YF] was tested, and the phosphorylation enrichment was 0.369. Work on VMTVDYSKTVV [SETD2_Y770] yielded a phosphorylation enrichment of 0.451. Sequence SVKVYYKKCWF [EPHA7_Y202_S207F] has a phosphorylation enrichment of 0.375. Work on LIQRNYKLTAQ [ALPK2_Y1975_A1978T] yielded a phosphorylation enrichment of 0.462. DVFVSYDFGKS [SORL1_Y139_YF] gave a phosphorylation enrichment of 0.383. With AFRRGYFDEEM [PLEC_Y2971_YF] the phosphorylation enrichment was 0.622. In the case of IIRRLYLKWHP [SACS_Y4333], the phosphorylation enrichment is reported as 0.535. SEPDLYCDPRG [PKP1_Y160] showed a phosphorylation enrichment of 1.95.

These sequences were tested on AncSZ in the same assay as above.
VMVCAYLLHRG [PTEN_Y138_I135V] gave a phosphorylation enrichment of 1.13. In the case of QFFQGYFNNNF [ZNF236_Y644_S643G], the phosphorylation enrichment is reported as 1.15. Sequence VIKDKYPQARY [APTX_Y209_K211Q] has a phosphorylation enrichment of 0.498. VQDPAYLRDIN [OPRK1_Y369_D374N] was tested, and the phosphorylation enrichment was 0.828. With EWLRGYLENGK [HLA-C_Y195_R194G] the phosphorylation enrichment was 0.844. KQMEQYMSFHK [HCN1_Y417_V414M] was tested, and the phosphorylation enrichment was 0.5. EWQQTYTYDSG [JUP_Y20] was tested, and the phosphorylation enrichment was 1.12. With HNLDFYKKTTN [FGFR3_Y648_YF] the phosphorylation enrichment was 3.51. GVRLFYRVMES [RB1_Y454_YF] showed a phosphorylation enrichment of 1.29. Sequence SVTCTYSPALN [TP53_Y126] has a phosphorylation enrichment of 1.53. AEPPDYSPVTQ [ADGRG2_Y285_H290Q] gave a phosphorylation enrichment of 1.46. GKFRMYVAVWT [F13A1_Y161] was tested, and the phosphorylation enrichment was 1.14. With REDVFYTSKLW [AKR1C2_Y81_I79V] the phosphorylation enrichment was 1.52. In the case of TVETKYDNISR [SETDB2_Y477], the phosphorylation enrichment is reported as 0.72. For RKQQLYTAMEE [CCDC39_Y593], the phosphorylation enrichment was 0.933. EELLRYAIVTP [POC5_Y37_H36R] gave a phosphorylation enrichment of 0.928. For PVDNLYAEPAV [PRPS1_Y146], the phosphorylation enrichment was 2.52. Work on NQLNDYIFSFD [RARS1_Y516_R512Q] yielded a phosphorylation enrichment of 1.42. FQKNIYSEEPR [LMNA_Y211_L215P] gave a phosphorylation enrichment of 0.773. With KELALYDENWF [RPS19_Y48_P47L] the phosphorylation enrichment was 1.5. KRISCYEARFQ [PFKFB3_Y194_S197R_YF] showed a phosphorylation enrichment of 0.669. For FSAPNYCFRCG [PPP2CA_Y265_YF], the phosphorylation enrichment was 0.661. ADVLDYIKALN [HPRT1_Y81_L78V] gave a phosphorylation enrichment of 0.756. EVTLTYATGTK [NFKB1_Y485] showed a phosphorylation enrichment of 0.805. FLAVGYHKPHI [IDS_Y225] was tested, and the phosphorylation enrichment was 0.741. Work on FADTAYNFRHG [PAH_Y166_I164T_YF] yielded a phosphorylation enrichment of 0.599. In the case of VMTVDYSKTVV [SETD2_Y770], the phosphorylation enrichment is reported as 0.638. With SVKVYYKKCWF [EPHA7_Y202_S207F] the phosphorylation enrichment was 1.12. Work on LIQRNYKLTAQ [ALPK2_Y1975_A1978T] yielded a phosphorylation enrichment of 0.86. DVFVSYDFGKS [SORL1_Y139_YF] gave a phosphorylation enrichment of 0.939. AFRRGYFDEEM [PLEC_Y2971_YF] was tested, and the phosphorylation enrichment was 1.58. For IIRRLYLKWHP [SACS_Y4333], the phosphorylation enrichment was 1.04. With SEPDLYCDPRG [PKP1_Y160] the phosphorylation enrichment was 2.48.
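Note: 11-residue human phosphosite peptides and single-mutation variants displayed on the E. coli surface, counted by deep sequencing, each peptide's frequency after selection divided by its frequency in the unselected input library; frequency after pTyr selection over input frequency; kinase dosed for 20-30% of maximal phosphorylation in three min.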
